According to patent US20250326862A1, “Antibody or Fragment Thereof Binding Specifically to Mertk, and Anti-Tumor Agent” (Chiome Bioscience Inc., priority 2021, published 2025):

Legend:
[1] = administration to mice; Non-Patent Document 3; cited from earlier work
[2] = Test 7: in vivo ocular toxicity test, TB staining of eye sections; design: species or system Balb/c mice; conditions: eyes removed day 29, FIG. 17
Method: The ocular toxicity test was carried out using Balb/c mice. The mice intravenously received “20A77_mIgG1”, “24A1_mIgG1” or an isotype control antibody mIgG1 at a dose of 10 mg/kg at a frequency of twice a week. As a positive control of ocular toxicity, mice orally received a MerTK small molecule inhibitor UNC569 at a dose of 150 mg/kg for 10 days. At day 29 after the first administration, eyes were removed, fixed with a Karnovsky's fixative and then subjected to embedding in a resin, preparation of sections and toluidine blue staining (hereinafter also referred to as “TB staining”) carried out by Applied Medical Research Laboratory.

[3] = tested on: mouse colon cancer cell line CT26; test: Test 4: efficacious dosage in CT26 syngeneic tumor model; type: in vivo, Balb/c mice; conditions: vs solvent control
Method: (§1) CT26 cells (5×10^6 cells per mouse) were subcutaneously transplanted to Balb/c mice at the right flank. After 5 days of the tumor transplantation, the mice were divided into groups and an isotype control antibody mIgG2a and “20A77_mIgG2a” were respectively intraperitoneally administered at a dose of 10 mg/kg at a frequency of twice a week. After the administration, the tumor size was measured at a frequency of twice a week until day 19 after the tumor transplantation. The tumor size was calculated from the equation below with the minor axis and the major axis of the tumor measured using calipers:
On the basis of the procedures indicated below, anti-tumor effects of “20A77_mIgG1” and “24A1_mIgG1” according to the dosage thereof were evaluated. As “Test 3” above, a syngeneic tumor model using the mouse colon cancer cell line CT26 (ATCC) was used for the evaluation.
In the “20A77_mIgG1” administration group, a solvent (1% histidine buffer, pH 6.0) and “20A77_mIgG1” were intraperitoneally administered at a dose of 3, 10 or 30 mg/kg at a frequency of twice a week. […] The tumor size was measured at a frequency of twice a week until day 19 and 22 after the tumor transplantation for the “20A77_mIgG1” and “24A1_mIgG1” administration groups, respectively.

[4] = tested on: mouse colon cancer cell line CT26; test: Test 5: combined administration with anti-PD-1 antibody in CT26 syngeneic tumor model; type: in vivo, Balb/c mice; conditions: 5 mg/kg plus anti-mouse PD-1 antibody 29F.1A12 0.3 mg/kg, twice a week until day 19; FIGS. 11 and 12
Method: as §1
On the basis of the procedures indicated below, anti-tumor effects of combined use of each of “20A77_mIgG1” and “24A1_mIgG1” and an anti-PD-1 antibody were evaluated. As “Test 3” above, a syngeneic tumor model using the mouse colon cancer cell line CT26 (ATCC) was used for the evaluation. Anti-PD-1 antibodies are known to have anti-tumor effects.
The administration groups received the antibodies indicated below at a frequency of twice a week. […]

| Molecule | ocular toxicity: toluidine blue-positive granules and vacuoles in photoreceptor [1] | TB-positive granules in the retinal pigment epithelium ([2]; positive control, 150 mg/kg oral for 10 days) | tumor growth suppressing effect ([3]; 5 mg/kg intraperitoneal twice a week, until day 22, FIGS. 9 and 10) | tumor growth suppressing effect ([3]; 30 mg/kg intraperitoneal twice a week, day 19 (20A77_mIgG1) or day 22 (24A1_mIgG1)) | anti-tumor effects of combined use with anti-PD-1 antibody [4] | TB-positive granules in the retinal pigment epithelium ([2]; 10 mg/kg intravenous twice a week) |
| --- | --- | --- | --- | --- | --- | --- |
| CCCCNc1ncc2c(-c3ccc(F)cc3)nn(CC3CCC(N)CC3)c2n1 (stereo not drawn) [UNC569, reference compound] | increased toluidine blue-positive granules and vacuoles in photoreceptor, resulting in ocular toxicity | increased TB-positive granules |  |  |  |  |
| 24A1_mIgG1: recombinant mouse IgG1 antibody with 24A1 variable regions (antibody, V domains shown) VH: EVQLVESGGGLVQPKGSLKLSCAASGFTFNVYDMHWVRQAPGEGLEWVARIRSKSSNYATNYADSVKDRFTISRDDSQSMLYLQMNNLQTEDTAIYYCVRDGSHYYYALDYWGQGTSVTVSS VL: DIQMTQTTSSLSASLGDRVTISCRASQDINNYLNWYQQKLDGTVKLLIYYSSRLHSGVPSRFSGSGSGTDYSLTISNLEQEDIATYFCQQGKMFPWTFGGGTKLEIK |  |  | significant tumor growth suppression | significant tumor growth suppression | had enhanced anti-tumor effects | no increase in TB-positive granules was observed |
